Source: patent publication US20050181476A1 (VLAAMS INTERUNIVERSITAIR INSTITUUT VOOR BIOTECHNOLOGIE VZW, published 2005)

Target: T1, IRAK-4 (UniProt Q9NWZ3 1-460)
T1 construct: also called Gal4AD-IRAK4 (in yeast); not shown: N-terminal Flag or VSV tag (pCRIII) in HEK293T co-immunoprecipitation
T1 sequence (looked up): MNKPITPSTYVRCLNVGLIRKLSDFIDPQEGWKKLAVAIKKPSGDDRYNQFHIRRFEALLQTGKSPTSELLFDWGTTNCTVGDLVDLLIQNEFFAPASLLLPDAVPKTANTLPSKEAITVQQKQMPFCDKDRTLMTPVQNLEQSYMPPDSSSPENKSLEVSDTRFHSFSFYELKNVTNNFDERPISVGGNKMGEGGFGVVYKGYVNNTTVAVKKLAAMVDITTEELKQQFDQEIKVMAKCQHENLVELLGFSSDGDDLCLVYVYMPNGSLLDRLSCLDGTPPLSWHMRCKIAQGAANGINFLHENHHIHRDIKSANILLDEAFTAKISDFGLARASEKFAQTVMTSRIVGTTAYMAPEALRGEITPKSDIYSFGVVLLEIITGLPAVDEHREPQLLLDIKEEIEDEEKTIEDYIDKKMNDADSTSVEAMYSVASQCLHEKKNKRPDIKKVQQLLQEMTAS
Test: co-immunoprecipitation from transfected HEK293T cells
Procedure: To test this, IRAK-1KD and IRAK-4 interactions were analyzed in the presence or absence of MyD88 and/or MyD88S. […] However, addition of MyD88 but not MyD88S permitted assembly of a complex containing both IRAKs. MyD88 thereby appears to act like a hinge inducing the proximity of IRAK-1 and IRAK-4.
2×10⁶ HEK293T cells were plated on 10-cm petri dishes and transiently transfected with 1 μg of the indicated expression plasmids. The total amount of DNA was kept at 5 μg per petri dish by adding empty vector. Twenty-four hours post-transfection, cells were washed with PBS, and lysed in 500 μl lysis buffer (50 mM HEPES pH7.6, 250 mM NaCl, 0.1% NP-40, 5 mM EDTA, supplemented with protease and phosphatase inhibitors). Lysates were incubated for 16 hours with 5 μg anti-Flag (Sigma). Immunocomplexes were immobilized on protein A-Trisacryl beads (Pierce Chemical Co., Rockford, USA). The beads were washed twice with lysis buffer and twice with lysis buffer containing 1 M NaCl. Bound proteins were eluted by boiling in Laemli buffer and analyzed by 10% SDS-PAGE and Western blotting. Western blots were blocked with 5% milk and incubated overnight with primary antibodies. Antibodies raised against the C-terminal part of MyD88 were purchased from Immucor (Roedermark, Germany). […]

- binding result: no binding
B1: E-MyD88S (other)
chain: MSAGDPRVGSGSLDSFMFSIPLVALNVGVRRRLSLFLNPRTPVAADWTLLPEEMGFEYLEIRELETRPDPTRSLLDAWQGRSGASVGRLLELLALLDREDILKELKSRIGQTPELFDAFICYCPNDIEFVQEMIRQLEQTDYRLKLCVSDRDVLPGTCVWSIASELIEKRCRRMVVVVSDDYLQSKECDFQTKFALSLSPGVQQKRLIPIKYKAMKKDFPSILRFITICDYTNPCTKSWFWTRLAKALSLP
notes: Expressed in HEK293T cells; also called pCAGGS-E-MyD88S; splice variant of MyD88 lacking the intermediate domain (ID); not shown: N-terminal E-tag
